Measurements published in paper PMC4193741 (PLoS ONE, 2014).

T1: GST-fused N1 antigen (N1 epitope of H1N1 influenza virus) (Influenza A virus H1N1, neuraminidase …)
T1 construct: not shown: GST, N-terminal, kept
T1 chain: CRDNWHGSNRPW

T2: GST-fused PreS2 antigen (PreS2 epitope of HBV) (Hepatitis B virus, PreS2 epitope …)
T2 construct: also called GST-PreS2; PreS2 of HBV; not shown: GST, N-terminal, kept
T2 chain: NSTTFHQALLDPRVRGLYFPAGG


Legend:
[1] = target: T1, GST-fused N1 antigen (N1 epitope of …); test: SPR; Biacore 3000, CM5 chip; […], PBS running buffer; […]; settings: both partners purified
[2] = target: T2, GST-fused PreS2 antigen (PreS2 epitope …); test: as above; settings: both partners purified

| Binder | Kd [1] [nM] | Kd [2] [nM] |
| --- | --- | --- |
| S5 scFv (scFv, V domains shown) VH: EVQLLESGGGLVQPGGSLRLSCAASGFTFSNYCIGWVRQAPGKGLEWVSPINSNNSNTEYADSVKGRFTISRDNSKNTLYLQMNSLRAEDTAVYYCARCSLPQISHFDYWGQGTLVTVSS VL: EIVLTQSPGTLSLSPGERATLSCRASQNVSNYVSWYQQKPGQAPRLLIYDISTLQTGIPDRFSGSGSGTDFTLTISRLEPEDFAVYYCPKRVSTGGTFGQGTKVEIK | 11 | – |
| SP1 scFv (scFv, V domains shown, also called clone SP1; anti-PreS2 SP1 scFv) VH: EVQLLESGGGLVQPGGSLRLSCAASGFTFSDYAMYWVRQAPGKGLEWVSGIDINGSNTKYADSVKGRFTISRDNSKNTLYLQMNSLRAEDTAVYYCARKYNHNNHQNTTNFDYWGQGTLVTVSS VL: EIVLTQSPGTLSLSPGERATLSCRASQNSSSYLSWYQQKPGQAPRLLIYYTSKLESGIPDRFSGSGSGTDFTLTISRLEPEDFAVYYCETVPSLLGVFGQGTKVEIK | – | 11.5 |
